Data reported in paper doi:10.1101/096651 (bioRxiv, 2016).

What was measured:
Assay in all cases: SEC
[1] = target: Apo-COCP (colorless apoprotein of COCP, OCP-CTD without carotenoid) (Synechocystis sp. PCC 6803) (UniProt P74102)
[2] = target: C-terminal OCP-related Carotenoid Protein (COCP), carotenoid-bound OCP-CTD (Synechocystis sp. PCC 6803) (UniProt P74102)
SEC = target: the molecule itself

Apo-COCP (colorless apoprotein of COCP, OCP-CTD without carotenoid) (from UniProt P74102 1-317) (domain or fragment)
stoichiometry N [1]: 2

C-terminal OCP-related Carotenoid Protein (COCP), carotenoid-bound OCP-CTD (from UniProt P74102 1-317) (domain or fragment)
stoichiometry N [2]: 2

B1: Fluorescence Recovery Protein (FRP) (natural protein)
chain: MLQTAEAPWSQAETQSAHALFRKAYQRELDGLLATVQAQASQITQIDDLWKLHDFLSAKRHEIDGKYDDRQSVIIFVFAQLLKEGLVQAEELTFLAADKQSKIKALARL
stoichiometry N (SEC): 2
